Measurements reported in the supplement of paper PMC9112550, “Optimization of the antimicrobial peptide Bac7 by deep mutational scanning” (BMC Biology, 2022).

test system: Escherichia coli TOP10; test: shrunken log2 fold change of peptide-encoding DNA abundance (4.5 h post-induction vs induction); higher = less antimicrobial activity (less host growth inhibition); conditions: time post-induction: 4.5 h; library: site-saturation at positions 5, 18, 19, 20
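Note: peptides expressed intracellularly from a pBAD plasmid library in pooled LB shake-flask culture, induced with 0.3% L-arabinose, DNA abundance read by NGS, three biological replicates, DESeq2 with apeglm shrinkage.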

Row | Sequence | shrunken log2 fold change
1 | RRIRNRPPRLPRPRPRPMVLPRP | 0.0232
2 | RRIRGRPPRLPRPRPRPWCDPRP | 0.0715
3 | RRIRRRPPRLPRPRPRPQSIPRP | -0.0196
4 | RRIRFRPPRLPRPRPRPKYCPRP | 0.124
5 | RRIRMRPPRLPRPRPRPLKKPRP | 0.349
6 | RRIRNRPPRLPRPRPRPNRAPRP | 0.0272
7 | RRIRVRPPRLPRPRPRPRSCPRP | 0.0646
8 | RRIRMRPPRLPRPRPRPPKFPRP | 0.166
9 | RRIRYRPPRLPRPRPRPIEDPRP | -0.274
10 | RRIRGRPPRLPRPRPRPKVPPRP | 0.447
11 | RRIRRRPPRLPRPRPRPTLWPRP | 0.563
12 | RRIRTRPPRLPRPRPRPLWMPRP | -0.119
13 | RRIRERPPRLPRPRPRPEEMPRP | 0.0169
14 | RRIRMRPPRLPRPRPRPLFGPRP | 0.232
15 | RRIRKRPPRLPRPRPRPQWIPRP | 0.00082
16 | RRIRKRPPRLPRPRPRPRMDPRP | 0.236
17 | RRIRTRPPRLPRPRPRPYLTPRP | -0.171
18 | RRIRVRPPRLPRPRPRPQHSPRP | -0.245
19 | RRIRQRPPRLPRPRPRPRDCPRP | 0.142
20 | RRIRFRPPRLPRPRPRPESIPRP | -0.126
21 | RRIRARPPRLPRPRPRPGCHPRP | 0.265
22 | RRIRQRPPRLPRPRPRPFVVPRP | 0.0366
23 | RRIRDRPPRLPRPRPRPHNWPRP | -0.144
24 | RRIRFRPPRLPRPRPRPRKWPRP | 0.498
25 | RRIRKRPPRLPRPRPRPGWNPRP | 0.106

Row | Sequence | shrunken log2 fold change
26 | RRIRSRPPRLPRPRPRPATIPRP | 0.115
27 | RRIRQRPPRLPRPRPRPIPNPRP | -0.0226
28 | RRIRMRPPRLPRPRPRPAWYPRP | 0.177
29 | RRIRARPPRLPRPRPRPILIPRP | -0.374
30 | RRIRRRPPRLPRPRPRPVENPRP | 0.0788
31 | RRIRQRPPRLPRPRPRPSEEPRP | -0.226
32 | RRIRVRPPRLPRPRPRPGSYPRP | -0.186
33 | RRIRDRPPRLPRPRPRPENRPRP | -0.0191
34 | RRIRDRPPRLPRPRPRPNSWPRP | -0.12
35 | RRIRDRPPRLPRPRPRPDRFPRP | 0.0112
36 | RRIRYRPPRLPRPRPRPIPVPRP | -0.0888
37 | RRIRPRPPRLPRPRPRPSREPRP | 0.113
38 | RRIRTRPPRLPRPRPRPDGWPRP | 0.468
39 | RRIRPRPPRLPRPRPRPWSCPRP | -0.165
40 | RRIRLRPPRLPRPRPRPWYCPRP | -0.766
41 | RRIRARPPRLPRPRPRPMLKPRP | 0.216
42 | RRIRCRPPRLPRPRPRPCKRPRP | -0.115
43 | RRIRLRPPRLPRPRPRPEVCPRP | -0.0515
44 | RRIRCRPPRLPRPRPRPYYNPRP | -1.2
45 | RRIRFRPPRLPRPRPRPAHVPRP | -0.0462
46 | RRIRKRPPRLPRPRPRPNDDPRP | 0.414
47 | RRIRKRPPRLPRPRPRPTNEPRP | 0.387
48 | RRIRDRPPRLPRPRPRPNFWPRP | 0.375
49 | RRIRNRPPRLPRPRPRPIIAPRP | -0.127
50 | RRIRWRPPRLPRPRPRPHRSPRP | -0.243

Row | Sequence | shrunken log2 fold change
51 | RRIRARPPRLPRPRPRPNKYPRP | -0.449
52 | RRIRRRPPRLPRPRPRPNWGPRP | 0.412
53 | RRIRNRPPRLPRPRPRPFGWPRP | 0.0221
54 | RRIRARPPRLPRPRPRPPSWPRP | 0.736
55 | RRIRARPPRLPRPRPRPWQVPRP | 0.191
56 | RRIRCRPPRLPRPRPRPIMYPRP | -0.916
57 | RRIRLRPPRLPRPRPRPYLLPRP | -0.248
58 | RRIRFRPPRLPRPRPRPDHCPRP | -0.0831
59 | RRIRGRPPRLPRPRPRPDNYPRP | 0.0266
60 | RRIRGRPPRLPRPRPRPQWIPRP | 0.518
61 | RRIRHRPPRLPRPRPRPRTPPRP | 0.314
62 | RRIRNRPPRLPRPRPRPRYSPRP | -0.309
63 | RRIRFRPPRLPRPRPRPNFYPRP | -0.212
64 | RRIRARPPRLPRPRPRPGASPRP | 0.978
65 | RRIRRRPPRLPRPRPRPTKQPRP | -0.0752
66 | RRIRLRPPRLPRPRPRPTVYPRP | -0.146
67 | RRIRPRPPRLPRPRPRPITEPRP | -0.0543
68 | RRIRERPPRLPRPRPRPSKKPRP | -0.645
69 | RRIRDRPPRLPRPRPRPYSTPRP | -0.0663
70 | RRIRVRPPRLPRPRPRPDPWPRP | 0.131
71 | RRIRPRPPRLPRPRPRPEQFPRP | -0.0226
72 | RRIRVRPPRLPRPRPRPKETPRP | 0.0161
73 | RRIRQRPPRLPRPRPRPADKPRP | -0.137
74 | RRIRRRPPRLPRPRPRPNNAPRP | -0.18
75 | RRIRFRPPRLPRPRPRPQVFPRP | -0.139

Row | Sequence | shrunken log2 fold change
76 | RRIRPRPPRLPRPRPRPCTVPRP | 0.0392
77 | RRIRYRPPRLPRPRPRPFACPRP | 0.0731
78 | RRIRYRPPRLPRPRPRPDIVPRP | -0.295
79 | RRIRGRPPRLPRPRPRPWGFPRP | -0.126
80 | RRIRWRPPRLPRPRPRPIKIPRP | -0.0625
81 | RRIRQRPPRLPRPRPRPFRWPRP | -0.0233
82 | RRIRERPPRLPRPRPRPHKRPRP | 3.62
83 | RRIRQRPPRLPRPRPRPKTWPRP | 1.14
84 | RRIRNRPPRLPRPRPRPECPPRP | 0.012
85 | RRIRLRPPRLPRPRPRPALDPRP | 0.396
86 | RRIRWRPPRLPRPRPRPHEVPRP | 0.169
87 | RRIRPRPPRLPRPRPRPASVPRP | 0.185
88 | RRIRARPPRLPRPRPRPWLWPRP | 0.435
89 | RRIRIRPPRLPRPRPRPKTGPRP | -0.388
90 | RRIRDRPPRLPRPRPRPHPNPRP | -0.662
91 | RRIRVRPPRLPRPRPRPFSPPRP | -0.363
92 | RRIRIRPPRLPRPRPRPWQMPRP | 0.0562
93 | RRIRKRPPRLPRPRPRPRLQPRP | 0.475
94 | RRIRSRPPRLPRPRPRPRTNPRP | 0.057
95 | RRIRCRPPRLPRPRPRPYPSPRP | -0.0149
96 | RRIRQRPPRLPRPRPRPGTVPRP | -0.00591
97 | RRIRTRPPRLPRPRPRPQFLPRP | -0.352
98 | RRIRLRPPRLPRPRPRPMPNPRP | -0.0177
99 | RRIRARPPRLPRPRPRPKMFPRP | -0.0487
100 | RRIRFRPPRLPRPRPRPCWLPRP | -0.165

Row | Sequence | shrunken log2 fold change
101 | RRIRYRPPRLPRPRPRPDSGPRP | -0.0811
102 | RRIRTRPPRLPRPRPRPVIRPRP | -0.176
103 | RRIRARPPRLPRPRPRPKWQPRP | 0.0511
104 | RRIRQRPPRLPRPRPRPCAAPRP | 0.339
105 | RRIRARPPRLPRPRPRPNPFPRP | -0.0899
106 | RRIRPRPPRLPRPRPRPFGPPRP | -0.083
107 | RRIRVRPPRLPRPRPRPFVFPRP | -0.0359
108 | RRIRWRPPRLPRPRPRPTTAPRP | 0.432
109 | RRIRKRPPRLPRPRPRPIAYPRP | -0.0799
110 | RRIRPRPPRLPRPRPRPWYHPRP | -0.516
111 | RRIRCRPPRLPRPRPRPGEPPRP | 0.0366
112 | RRIRWRPPRLPRPRPRPDAQPRP | 1.48
113 | RRIRTRPPRLPRPRPRPWYRPRP | -0.23
114 | RRIRNRPPRLPRPRPRPAQLPRP | -0.207
115 | RRIRKRPPRLPRPRPRPKSWPRP | 0.308
116 | RRIRRRPPRLPRPRPRPEADPRP | 0.774
117 | RRIRDRPPRLPRPRPRPFYFPRP | -0.262
118 | RRIRCRPPRLPRPRPRPLSAPRP | 0.00383
119 | RRIRCRPPRLPRPRPRPAKWPRP | 0.235
120 | RRIRSRPPRLPRPRPRPLIPPRP | -0.324
121 | RRIRPRPPRLPRPRPRPNKWPRP | -0.232
122 | RRIRIRPPRLPRPRPRPYYRPRP | -0.105
123 | RRIRVRPPRLPRPRPRPAFSPRP | 0.104
124 | RRIRWRPPRLPRPRPRPSDLPRP | -0.175
125 | RRIRWRPPRLPRPRPRPKLIPRP | -0.211
